The target of data set [1] is H1 (A/NewCaledonia/20/1999) (Influenza A virus, UniProt Q6WG00). The following applies: read-out: affinity constant via yeast surface display.
The nature of data set [2]: stability after loop truncation and trimerization. The settings on record: trimerized, truncation of 3 residues after position 43.
In data set [3] the target is HA of H3N2 A/Hong Kong/1/1968 (Influenza A virus, UniProt Q91MA7).

Changes are numbered by the printed parent chain.

B1: ASGMLAISMDTDKISNSFEDCKYFLIELKSAGWTNTIFNDESGKEEIVKMGVDAIICKNISEENYKKFSKKIEIYHAEGDDVNKNISLFLEGELSKISNP (protein)
chain: ASGMLAISMDTDKISNSFEDCKYFLIELKSAGWTNTIFNDESGKEEIVKMGVDAIICKNISEENYKKFSKKIEIYHAEGDDVNKNISLFLEGELSKISNP
For the molecule B1, the Kd in data set [1] was 23.2 nM.

B2: GIVNVPNPNTTKYQQLARTAVAIYNYHEQAHLCFVENLNVKEQGNYYYITLAACDDAGKKAIYEAKIGVVESAGWTGVEEFKLV (protein)
chain: GIVNVPNPNTTKYQQLARTAVAIYNYHEQAHLCFVENLNVKEQGNYYYITLAACDDAGKKAIYEAKIGVVESAGWTGVEEFKLV
Regarding B2, the stability result in data set [2] is reported as “stability is improved”. The binding when trimerized entry in data set [3] is reported as “binds extremely tightly”.

B3: GIVNVPNCNTTKYQQLARTAVAIYNYHEQAHLTFVENLNCKEQGNYYYITLAATDDAGKKAIYEAKIGVVESAGWTGVEEFKLV (protein)
chain: B2 chain with P8C, C33T, V40C, C54T
Take B3: the stability entry in data set [2] is “stability is improved”. Also, in data set [3], the binding when trimerized result is “binds extremely tightly”.

(Values after patent US20170198014A1, “POLYPEPTIDES AND THEIR USE FOR TREATING INFLUENZA” ([…] ITS CENTER FOR COMMERCIALIZATION, priority 2014, published 2017).)
